Assay results: patent publication US20230212319A1, “NOVEL ANTIGEN BINDING DOMAINS AND SYNTHETIC ANTIGEN RECEPTORS INCORPORATING THE SAME” (University of Southern California, priority 2020, published 2023)

B1: 22104 (protein)
chain: MALPVTALLLPLALLLHAARPDIQMTQSPSSLSASVGDRVTITCKASDHINNWLAWYQQKPGQAPKLLIYGATTLETGVPSRFSGSGSGTDYTLTISSLQPEDFATYYCQQSWNTPWTFGQGTKLEIKRLEDLKNVFPPEVAVFEPSEAEISHTQKATLVCLATGFYPDHVELSWWVNGKEVHSGVCTDPQPLKEQPALNDSRYCLSSRLRVSATFWQNPRNHFRCQVQFYGLSENDEWTQDRAKPVTQIVSAEAWGRADCGFTSESYQQGVLSATILYEILLGKATLYAVLVSALVLMAMVKRKDSRGRAKRSGSGATNFSLLKQAGDVEENPGPTSATMDWIWRILFLVGAATGAHSGPQVQLQESGGGLAQAGGSLRLSCAASGRTFSMGWFRQAPGKEREFVAAITYSGGSPYYASSVRGRFTISRDNAKNTVYLQMNSLKPEDTAVYYCAANPTYGSDWNAENWGQGTQVTVSSGSGGGGSGGGGSGGGGSFEQVQLQQPGAELVKPGASVKMSCKASGYAFSSYWINWMKQKPGQGLEWIGQIYPGDGDTNYNGKFKGRATLTADTSSSTAYMQLSSLTSEDSAVYFCARSITTVVGCAMDYWGQGTSVTVSSTRIQNPDPAVYQLRDSKSSDKSVCLFTDFDSQTNVSQSKDSDVYITDKCVLDMRSMDFKSNSAVAWSNKSDFACANAFNNSIIPEDTFFPSPESSCDVKLVEKSFETDTNLNFQNLSVIGFRILLLKVAGFNLLMTLRLWSSRAKRSGSGVKQTLNFDLLKLAGDVESNPGPSRGHMTEYKPTVRLATRDDVPRAVRTLAAAFADYPATRHTVDPDRHIERVTELQELFLTRVGLDIGKVWVADDGAAVAVWTTPESVEAGAVFAEIGPRMAELSGSRLAAQQQMEGLLAPHRPKEPAWFLATVGVSPDHQGKGLGSAVVLPGVEAAERAGVPAFLETSAPRNLPFYERLGFTVTADVEVPEGPRTWCMTRKPGA
B2: 22229 (protein)
chain: MALPVTALLLPLALLLHAARPACEVQLLESGGGLIQPGGSLRLSCAASGFTFSSHAMTWVRQAPGKGLEWVSAISGSGDYTHYADSVKGRFTISRDNSKNTVYLQMNSLRAEDSAVYYCAKDEDGGSLLGHRGQGTLVTVSSGTGAIGFLRTAEFDIQMTQSPSSLSASVGDRVTITCKASDHINNWLAWYQQKPGQAPKLLIYGATTLETGVPSRFSGSGSGTDYTLTISSLQPEDFATYYCQQSWNTPWTFGQGTKLEIKRLEDLKNVFPPEVAVFEPSKAEIAHTQKATLVCLATGFYPDHVELSWWVNGKEVHSGVCTDPQPLKEQPALNDSRYCLSSRLRVSATFWQNPRNHFRCQVQFYGLSENDEWTQDRAKPVTQIVSAEAWGRADCGITSASYHQGVLSATILYEILLGKATLYAVLVSALVLMAMVKRKDSRGRAKRSGSGATNFSLLKQAGDVEENPGPTSATMDWIWRILFLVGAATGAHSGPEVQLVESGGGLVQAGGSLRLSCAASGRTFSMGWFRQAPGKEREFVAAITYSGGSPYYADSVKGRFTISRDNAKNTVYLQMNSLKPEDTAVYYCAANPTYGSDWNAENWGQGTQVTVSSGSGGGGSGGGGSGGGGSFEQVQLQQPGAELVKPGASVKMSCKASGYAFSSYWINWMKQKPGQGLEWIGQIYPGDGDTNYNGKFKGRATLTADTSSSTAYMQLSSLTSEDSAVYFCARSITTVVGCAMDYWGQGTSVTVSSTRIQNPDPAVYQLRDSKSSDKSVCLFTDFDSQTNVSQSKDSDVYITDKCVLDMRSMDFKSNSAVAWSNKSDFACANAFNNSIIPEDTFFPSPESSCDVKLVEKSFETDTNLNFQNLSVIGFRILLLKVAGFNLLMTLRLWSSRAKRSGSGVKQTLNFDLLKLAGDVESNPGPSRGHMTEYKPTVRLATRDDVPRAVRTLAAAFADYPATRHTVDPDRHIERVTELQELFLTRVGLDIGKVWVADDGAAVAVWTTPESVEAGAVFAEIGPRMAELSGSRLAAQQQMEGLLAPHRPKEPAWFLATVGVSPDHQGKGLGSAVVLPGVEAAERAGVPAFLETSAPRNLPFYERLGFTVTADVEVPEGPRTWCMTRKPGA
B3: 22107 (protein)
chain: MALPVTALLLPLALLLHAARPDIQMTQSPSSLSASVGDRVTITCKASDHINNWLAWYQQKPGQAPKLLIYGATTLETGVPSRFSGSGSGTDYTLTISSLQPEDFATYYCQQSWNTPWTFGQGTKLEIKRLEIQNPDPAVYQLRDSKSSDKSVCLFTDFDSQTNVSQSKDSDVYITDKCVLDMRSMDFKSNSAVAWSNKSDFACANAFNNSIIPEDTFFPSSDVPCDVKLVEKSFETDTNLNFQNLSVIGFRILLLKVAGFNLLMTLRLWSSRAKRSGSGVKQTLNFDLLKLAGDVESNPGPTSATMDWIWRILFLVGAATGAHSGPQVQLQESGGGLAQAGGSLRLSCAASGRTFSMGWFRQAPGKEREFVAAITYSGGSPYYASSVRGRFTISRDNAKNTVYLQMNSLKPEDTAVYYCAANPTYGSDWNAENWGQGTQVTVSSGSGGGGSGGGGSGGGGSFEQVQLQQPGAELVKPGASVKMSCKASGYAFSSYWINWMKQKPGQGLEWIGQIYPGDGDTNYNGKFKGRATLTADTSSSTAYMQLSSLTSEDSAVYFCARSITTVVGCAMDYWGQGTSVTVSSTREDLKNVFPPEVAVFEPSKAEIAHTQKATLVCLATGFYPDHVELSWWVNGKEVHSGVCTDPQPLKEQPALNDSRYCLSSRLRVSATFWQNPRNHFRCQVQFYGLSENDEWTQDRAKPVTQIVSAEAWGRADCGITSASYHQGVLSATILYEILLGKATLYAVLVSALVLMAMVKRKDSRGRAKRSGSGATNFSLLKQAGDVEENPGPSRGHMTEYKPTVRLATRDDVPRAVRTLAAAFADYPATRHTVDPDRHIERVTELQELFLTRVGLDIGKVWVADDGAAVAVWTTPESVEAGAVFAEIGPRMAELSGSRLAAQQQMEGLLAPHRPKEPAWFLATVGVSPDHQGKGLGSAVVLPGVEAAERAGVPAFLETSAPRNLPFYERLGFTVTADVEVPEGPRTWCMTRKPGA
B4: 22108 (protein)
chain: MALPVTALLLPLALLLHAARPQVQLVESGGGLVQPGGSLRLSCAASGFTFTNHAMSWVRQAPGKGLELVSSISGNGRTTYYADSVKGRFTISRDISKNTLDLQMNSLRAEDTAVYYCAKDGGETLVDSRGQGTLVTVSSGTGGGGSGGGGSGGGGSEFDIQMTQSPSSLSASVGDRVTITCKASDHINNWLAWYQQKPGQAPKLLIYGATTLETGVPSRFSGSGSGTDYTLTISSLQPEDFATYYCQQSWNTPWTFGQGTKLEIKRLEDLKNVFPPEVAVFEPSEAEISHTQKATLVCLATGFYPDHVELSWWVNGKEVHSGVCTDPQPLKEQPALNDSRYCLSSRLRVSATFWQNPRNHFRCQVQFYGLSENDEWTQDRAKPVTQIVSAEAWGRADCGFTSESYQQGVLSATILYEILLGKATLYAVLVSALVLMAMVKRKDSRGRAKRSGSGATNFSLLKQAGDVEENPGPTSMDWIWRILFLVGAATGAHSFEQVQLQQPGAELVKPGASVKMSCKASGYAFSSYWINWMKQKPGQGLEWIGQIYPGDGDTNYNGKFKGRATLTADTSSSTAYMQLSSLTSEDSAVYFCARSITTVVGCAMDYWGQGTSVTVSSTRIQNPDPAVYQLRDSKSSDKSVCLFTDFDSQTNVSQSKDSDVYITDKCVLDMRSMDFKSNSAVAWSNKSDFACANAFNNSIIPEDTFFPSPESSCDVKLVEKSFETDTNLNFQNLSVIGFRILLLKVAGFNLLMTLRLWSSRAKRSGSGVKQTLNFDLLKLAGDVESNPGPSRGHMTEYKPTVRLATRDDVPRAVRTLAAAFADYPATRHTVDPDRHIERVTELQELFLTRVGLDIGKVWVADDGAAVAVWTTPESVEAGAVFAEIGPRMAELSGSRLAAQQQMEGLLAPHRPKEPAWFLATVGVSPDHQGKGLGSAVVLPGVEAAERAGVPAFLETSAPRNLPFYERLGFTVTADVEVPEGPRTWCMTRKPGA

Tested on: RAJI cells
Assay: JNG assay, co-culture with RAJI cells
Format: cell-based
Details: JNG cells expressing construct, co-culture with Raji
Outline: (§1)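 Jurkat-NFAT-GFP (JNG) cells stably expressing SAR constructs via lentiviral transduction and puromycin/blasticidin selection were cocultured with target cells at E:T ~1:2 for ~4–18 h. NFAT-driven GFP was measured by FACS versus parental JNG cells; scores +/- to 5+ denote ~5–50% GFP-positive cells.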

| Molecule | NFAT-GFP ASSAY: Raji |
| --- | --- |
| B1 | 5+ (refer to approximately 5%, 10%, 20%, 30%, 40% and 50% GFP positive cells) |
| B2 | 3+ (refer to approximately 5%, 10%, 20%, 30%, 40% and 50% GFP positive cells) |
| B3 | 4+ (refer to approximately 5%, 10%, 20%, 30%, 40% and 50% GFP positive cells) |
| B4 | 4+ (refer to approximately 5%, 10%, 20%, 30%, 40% and 50% GFP positive cells) |

Tested on: RS;411
Assay: JNG assay, co-culture with RS;411 cells
Format: cell-based
Details: co-culture with RS411
Outline: as §1

| Molecule | NFAT-GFP ASSAY: RS411 |
| --- | --- |
| B1 | 5+ (refer to approximately 5%, 10%, 20%, 30%, 40% and 50% GFP positive cells) |
| B2 | 2+ (refer to approximately 5%, 10%, 20%, 30%, 40% and 50% GFP positive cells) |
| B3 | + (refer to approximately 5%, 10%, 20%, 30%, 40% and 50% GFP positive cells) |
| B4 | 5+ (refer to approximately 5%, 10%, 20%, 30%, 40% and 50% GFP positive cells) |

Tested on: RAJI-CD19-KO cells
Assay: JNG assay, co-culture with RAJI-CD19-KO cells
Format: cell-based
Details: co-culture with Raji-CD19-KO
Outline: as §1

| Molecule | NFAT-GFP ASSAY: Raji-CD19-KO |
| --- | --- |
| B1 | 5+ (refer to approximately 5%, 10%, 20%, 30%, 40% and 50% GFP positive cells) |
| B2 | 5+ (refer to approximately 5%, 10%, 20%, 30%, 40% and 50% GFP positive cells) |
| B3 | 5+ (refer to approximately 5%, 10%, 20%, 30%, 40% and 50% GFP positive cells) |
| B4 | 3+ (refer to approximately 5%, 10%, 20%, 30%, 40% and 50% GFP positive cells) |
